According to patent US20020155121A1:

Experiments:
[1] = biological target: CCR5 expressed on cells (L1.2/R5, Cf2Th-R5, U373/CD4/CCR5) (UniProt P51681); experiment: flow cytometry on L1.2/R5 cells
[2] = biological target: CXCR4 expressed on cells (L1.2/X4, U373/CD4/CXCR4) (UniProt P61073); experiment: cell-based or functional assay
[3] = biological target: CCR5 expressed on cells (L1.2/R5, Cf2Th-R5, U373/CD4/CCR5) (UniProt P51681); experiment: cell-based or functional assay

Sequence of UniProt P51681 (P51681 whole entry): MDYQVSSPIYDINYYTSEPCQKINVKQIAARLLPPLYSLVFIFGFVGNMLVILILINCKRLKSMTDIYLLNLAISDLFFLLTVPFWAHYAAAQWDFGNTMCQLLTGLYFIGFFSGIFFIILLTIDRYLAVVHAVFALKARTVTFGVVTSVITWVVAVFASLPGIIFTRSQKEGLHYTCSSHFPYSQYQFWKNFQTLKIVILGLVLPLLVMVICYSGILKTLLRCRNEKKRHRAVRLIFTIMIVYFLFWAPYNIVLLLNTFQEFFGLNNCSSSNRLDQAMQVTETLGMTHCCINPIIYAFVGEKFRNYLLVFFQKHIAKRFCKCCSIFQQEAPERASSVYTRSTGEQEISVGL
Sequence of UniProt P61073 (P61073 whole entry): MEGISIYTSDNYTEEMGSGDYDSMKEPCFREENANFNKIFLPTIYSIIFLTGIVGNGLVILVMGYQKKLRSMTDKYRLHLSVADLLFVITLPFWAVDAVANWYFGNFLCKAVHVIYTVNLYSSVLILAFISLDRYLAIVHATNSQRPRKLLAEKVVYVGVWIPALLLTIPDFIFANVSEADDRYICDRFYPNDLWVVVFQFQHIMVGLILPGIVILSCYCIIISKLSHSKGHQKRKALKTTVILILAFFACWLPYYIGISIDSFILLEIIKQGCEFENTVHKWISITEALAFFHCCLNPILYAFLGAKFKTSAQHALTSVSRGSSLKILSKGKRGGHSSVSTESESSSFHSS

full-length single chain (FLSC) gp120-CD4 chimeric polypeptide (other; other documents disagree on this pair)
concentration of maximal binding [1]: 10 µg/mL

gp120-CD4-IgG1 chimeric polypeptide (Fc fusion)
ID90 (µg/mL), neutralization of 89.6 on U373/CD4/CXCR4 [2]: > 10 µg/mL
ID90 (µg/mL), neutralization of 2005 on U373/CD4/CXCR4 [2]: > 10 µg/mL
ID90 (µg/mL), neutralization of 2044 on U373/CD4/CXCR4 [2]: > 10 µg/mL
ID90 (µg/mL), neutralization of 89.6 on U373/CD4/CCR5 [3]: 3.56 µg/mL
ID90 (µg/mL), neutralization of ADA on U373/CD4/CCR5 [3]: 4.58 µg/mL
ID90 (µg/mL), neutralization of BaL on U373/CD4/CCR5 [3]: 3.1 µg/mL

truncated single chain (TcSC) gp120-CD4 chimeric polypeptide (other; other documents disagree on this pair)
fold higher concentration than FLSC to approach saturation binding [1]: 10 fold
